Source: patent publication US10501734B2, “Compositions and methods of use thereof for making polypeptides with many instances of nonstandard amino acids” (Yale University, priority 2014, dated 2019)

B1: pAcFRS.1.t1: pAcFRS variant A167D, R257G, SEQ ID NO: 5 (protein)
chain: MDEFEMIKRNTSEIISEEELREVLKKDEKSALIGFEPSGKIHLGHYLQIKKMIDLQNAGFDIIILLADLHAYLNQKGELDEIRKIGDYNKKVFEAMGLKAKYVYGSEFQLDKDYTLNVYRLALKTTLKRARRSMELIAREDENPKVAEVIYPIMQVNGCHYRGVDVDVGGMEQRKIHMLARELLPKKVVCIHNPVLTGLDGEGKMSSSKGNFIAVDDSPEEIRAKIKKAYCPAGVVEGNPIMEIAKYFLEYPLTIKGPEKFGGDLTVNSYEELESLFKNKELHPMRLKNAVAEELIKILEPIRKRL
B2: pAcFRS: progenitor M. jannaschii based p-acetyl-L-phenylalanine AARS, SEQ ID NO:1 (Young, et al., 2010) (protein, listed as Methanocaldococcus jannaschii)
chain: MDEFEMIKRNTSEIISEEELREVLKKDEKSALIGFEPSGKIHLGHYLQIKKMIDLQNAGFDIIILLADLHAYLNQKGELDEIRKIGDYNKKVFEAMGLKAKYVYGSEFQLDKDYTLNVYRLALKTTLKRARRSMELIAREDENPKVAEVIYPIMQVNGCHYRGVDVAVGGMEQRKIHMLARELLPKKVVCIHNPVLTGLDGEGKMSSSKGNFIAVDDSPEEIRAKIKKAYCPAGVVEGNPIMEIAKYFLEYPLTIKRPEKFGGDLTVNSYEELESLFKNKELHPMRLKNAVAEELIKILEPIRKRL
B3: pAcFRS.2.t1: pAcFRS variant L65V, A167D, R257G, SEQ ID NO: 8 (protein)
chain: MDEFEMIKRNTSEIISEEELREVLKKDEKSALIGFEPSGKIHLGHYLQIKKMIDLQNAGFDIIIVLADLHAYLNQKGELDEIRKIGDYNKKVFEAMGLKAKYVYGSEFQLDKDYTLNVYRLALKTTLKRARRSMELIAREDENPKVAEVIYPIMQVNGCHYRGVDVDVGGMEQRKIHMLARELLPKKVVCIHNPVLTGLDGEGKMSSSKGNFIAVDDSPEEIRAKIKKAYCPAGVVEGNPIMEIAKYFLEYPLTIKGPEKFGGDLTVNSYEELESLFKNKELHPMRLKNAVAEELIKILEPIRKRL
B4: pAzFRS.2.t1: pAcFRS variant E107T, F108Y, Q109M, R257G, SEQ ID NO: 14 (protein)
chain: MDEFEMIKRNTSEIISEEELREVLKKDEKSALIGFEPSGKIHLGHYLQIKKMIDLQNAGFDIIILLADLHAYLNQKGELDEIRKIGDYNKKVFEAMGLKAKYVYGSTYMLDKDYTLNVYRLALKTTLKRARRSMELIAREDENPKVAEVIYPIMQVNGCHYRGVDVAVGGMEQRKIHMLARELLPKKVVCIHNPVLTGLDGEGKMSSSKGNFIAVDDSPEEIRAKIKKAYCPAGVVEGNPIMEIAKYFLEYPLTIKGPEKFGGDLTVNSYEELESLFKNKELHPMRLKNAVAEELIKILEPIRKRL
B5: pAzFRS.1.t1: pAcFRS variant D158V, I159M, L162D, A167Y, R257G, SEQ ID NO: 11 (protein)
chain: MDEFEMIKRNTSEIISEEELREVLKKDEKSALIGFEPSGKIHLGHYLQIKKMIDLQNAGFDIIILLADLHAYLNQKGELDEIRKIGDYNKKVFEAMGLKAKYVYGSEFQLDKDYTLNVYRLALKTTLKRARRSMELIAREDENPKVAEVIYPIMQVNVMHYDGVDVYVGGMEQRKIHMLARELLPKKVVCIHNPVLTGLDGEGKMSSSKGNFIAVDDSPEEIRAKIKKAYCPAGVVEGNPIMMEIAKYFLEYPLTIKGPEKFGGDLTVNSYEELESLFKNKELHPMRLKNAVAEELIKILEPIRKRL

Assays:
tRNA = experiment: Aminoacylation assay (tRNA charging); assay type: biochemical; details: for Fold change: relative to progenitor pAcFRS
Description: Template plasmid containing tRNA gene was purified with the plasmid maxi kit (Qiagen), and 100 μg of plasmid was digested with BstNI (New England Biolabs). The BstNI digested template DNA was purified by phenol chloroform extraction, followed by ethanol precipitation and resolved in double distilled water. A His-tagged T7 RNA polymerase was purified over column of Ni-NTA resin according to manufacturer's instructions (Qiagen). The transcription reaction [40 mM Tris (pH 8); 4 mM each of UTP, CTP, GTP, and ATP at pH 7.0; 22 mM MgCl2; 2 mM spermidine; 10 mM DTT; 6 μg pyrophosphatase (Roche Applied Science); 60 μg/mL BstNI digested DNA template, approximately 0.2 mg/ml T7 RNA polymerase] was performed in 10 ml reaction volumes for overnight at 37° C. The tRNA was purified on 12% denaturing polyacrylamide gel containing 8 M urea and TBE buffer (90 mM Tris, 90 mM boric acid, 2 mM EDTA). UV shadowing illuminates the pure tRNA band, which is excised and extracted three times with 1M sodium acetate pH 5.3 at 4° C. The tRNA extractions were then ethanol precipitated, dissolved in RNase-free distilled water, pooled, and finally desalted using a Biospin 30 column (BioRad). The ratio of aminoacylated tRNA to total tRNA was determined to monitor reaction progress.
The tRNA was refolded by heating to 100° C. for 5 min and slow cooling to room temperature. At 65° C., MgC12, was added to a final concentration of 10 mM to aid folding. A His-tagged CCA adding enzyme was purified over column of Ni-NTA resin according to manufacturer's instructions (Qiagen). 16 μM folded tRNA in 50 mM Tris (pH 8.0), 20 mM MgCl2, 5 mM DTT and 50 μM NaPPi was incubated at room temperature for 1 hour with approximately 0.2 mg/ml CCA-adding enzyme and 1.6 μCi/μl of [α-32P]-labeled ATP (PerkinElmer). The sample was phenol/chloroform extracted and then passed over a Bio-spin 30 column (Bio-Rad) to remove excess ATP.
A 20 μl aminoacylation reaction contained the following components: 50 mM HEPES-KOH (pH 7.2), 25 mM KCl, 10 mM MgCl2, 5 mM DTT, 10 mM ATP, 25 μg/ml pyrophosphatase (Roche Applied Science), 2 mM amino acids. All plateau tRNA aminoacylation levels were determined at 37° C. according to the reactions conditions described above with 500 nM enzyme, 5 μM unlabeled tRNA plus 100 nM 32P-labeled tRNA. Time points were taken at 5 minutes, 20 minutes and 60 minutes by removing 2 μl aliquots from the reaction and immediately quenching the reaction into an ice-cold 3 μl quench solution [0.66 μg/μl nuclease P1 (Sigma) in 100 mM sodium citrate (pH 5.0)]. For each reaction, 2 μl of blank reaction mixture containing no enzymes was added to the quench solution as the start time point. The nuclease P1 mixture was then incubated at room temperature for 30 min and 1 μl aliquots were spotted on PEI-cellulose plates (Merck) and developed in running buffer containing 5% acetic acid and 100 mM ammonium acetate. Radioactive spots for AMP and AA-AMP (representing free tRNA and aminoacyl-tRNA, respectively) were separated and then visualized and quantified by phosphor imaging by a Molecular Dynamics Storm 860 phosphorimager (Amersham Biosciences). The ratio of aminoacylated tRNA to total tRNA was determined to monitor reaction progress.

ELP(30TAG)-GFP = experiment: Intact cell GFP fluorescence, ELP(30TAG)-GFP production; assay type: cell-based, E. coli; details: plasmid-based OTSs; panel of 14 nsAAs
Description: Liquid cell cultures of strains harboring chromosomally integrated OTSs and GFP reporter plasmids were inoculated from frozen stocks and grown to confluence overnight. Cultures were then inoculated at 1:20 dilution in LBmin media supplemented with 30 μg/ml kanamycin. Strains were inoculated by addition of 1:20 confluent cell culture (grown overnight) and allowed to grow at 34° C. to an OD600 of 0.5-0.8 in a shaking plate incubator at 650 r.p.m (˜3 h). AARS expression was then induced by the addition of 0.2% arabinose, GFP expression was induced by the addition of 60 ng/ul anhydrotetracycline, and the appropriate nsAA was added to a concentration of 1 mM. Cells were incubated at 34° C. for an additional 16 h. Liquid cell cultures of strains harboring plasmid-based OTSs and GFP or ELP-GFP reporter plasmids were inoculated from frozen stocks and grown to confluence overnight. Cultures were then inoculated at 1:20 dilution in 2×YT media supplemented with 30 μg/ml kanamycin and 20 μg/ml chloramphenicol. […] Cells were allowed to grow at 34° C. to an OD600 of 0.5-0.8 in a shaking plate incubator at 650 r.p.m (˜3 h), reporter protein expression was then induced by the addition of 60 ng/ul anhydrotetracycline, and cells were incubated at 34° C. for an additional 16 h.
For 384 well plate-based assays, fluorescence and OD600 were directly measured following expression. For 96 well plate-based assays, cells were centrifuged at 4,000 g for 4 min. Supernatant medium was removed and cells were resuspended in PBS. This process was repeated twice with PBS. GFP fluorescence was measured on a Biotek spectrophotometric plate reader using excitation and emission wavelengths of 395 and 509 nm, respectively). Fluorescence signals were normalized by dividing the fluorescence counts by the OD600 reading. The nsAAs used in this study were purchased from Sigma-Aldrich (St. Louis, Mo.), Chemlmpex (Wood Dale, Ill.), and Bachem (Torrance, Calif.). Solutions of nsAAs (50 mM) were made in water or 50 mM NaOH; these stock solutions were diluted 50- or 100-fold (to 1 mM final concentration) into medium used for bacterial growth.

Row | Molecule | Km (tRNA; nsAA pAcF) | kcat (tRNA; nsAA pAcF) | Fold change (tRNA; nsAA pAcF) | Km (tRNA; nsAA pAzF) | kcat (tRNA; nsAA pAzF) | Fold change (tRNA; nsAA pAzF) | decrease in tRNA charging for pAzF compared with pAcF (tRNA; in vitro biochemical analysis) | nsAA specificity in ELP(30TAG)-GFP production (ELP(30TAG)-GFP)
1 | B1 | 16 ± 4 µM | 1.12 ± 0.14 ×10^−3 s^−1 | 9.58 | 16 ± 1 µM | 0.63 ± 0.12 ×10^−3 s^−1 | 6.33 |  | 
2 | B2 | 34 ± 6 µM | 0.25 ± 0.04 ×10^−3 s^−1 | 1 | 34 ± 7 µM | 0.23 ± 0.03 ×10^−3 s^−1 | 1 |  | 
3 | B3 | 18 ± 2 µM | 0.54 ± 0.15 ×10^−3 s^−1 | 4.10 | 24 ± 7 µM | 0.22 ± 0.05 ×10^−3 s^−1 | 1.47 | 2.8 fold | for pAcF over pAzF decreases when expressed on a multi-copy plasmid
4 | B4 |  |  |  | 14 ± 3 µM | 0.71 ± 0.13 ×10^−3 s^−1 | 8.17 |  | 
5 | B5 |  |  |  | 24 ± 3 µM | 0.49 ± 0.17 ×10^−3 s^−1 | 3.29 |  | maintains stringent specificity for pAzF
